Assay results published in the supplement of paper PMC9170038.

Each sequence was assayed on K4 kissing-loop RNA reporter (assay: apparent KD of K4 kissing-loop reporter; higher = weaker reporter binding). Conditions: Eterna round: R107; input ligand: FMN 200 uM.
Procedure: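 RNA-MaP round R107: designed RNA switches with theophylline, tryptophan, arginine or FMN aptamers are transcribed on-chip within common flanks. They are titrated with a labelled K4 kissing-loop RNA reporter in RNA-MaP buffer (100 mM Tris pH 7.5, 80 mM KCl, 4 mM MgCl2), without ligand or with the indicated ligand. Median apparent KD per design.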
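Note: bound reporter read as fluorescence of individual clusters on recovered sequencing chips by microscopy, with normalized cluster intensities fitted with a binding model.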

Row | Sequence | apparent KD of K4 kissing-loop reporter [nM]
1 | AUUUAUUCGAGUGAUGUUCGUGUUUUUUCAGAGGAUAUGCGUAAUAGCAGAAGGCUGUUUUAUAUUAUAUUUUGAUUUUUUUAAA [JR_Nu_ExcFMNA_Sub025] | 92.2
2 | AUAAUCUUGCAGUGAUGUUGCAAGAAAGCUCAGGAUAUCAGGAAACUGAGAAGGGAGCAUCCUGAGCACUUGCAACAGUGCUCAG [[K1]-[K2]-[F1]-[F2]-[F]'-[K]'-[F]''_Design3] | 127
3 | UUUAUAAAGUCGGCCGCCACUGGUUUUAUUUUUGUUUAAUCUGGAUCAUAGUGAUGUUAUGAGACCAGGACCGGGACAUUUGUUA [#08 K4 Tryptophan B Exclusion] | 89.5
4 | UAUAUAGUGACGGCCGCCACUAUUGUGAUGUAGUUGUUAGAGUGAUGUUUUGUUGUUUGAUUUUGUAGGACCGGGUUAUAUGUUA [rccrwzmullin] | 842
5 | CCCAGUGAUGUUGGGAGUAGCCACAGGGAAGGAGCGUGCUAGAGCACAGGUAGGUCGCCCACUGGGUCAGUGAUGUUGGUCGGGU [Same State Arginine A GF 28] | 275
6 | CUUGGUCCACGAAGGAGCGCCGUGCAGUGAUGUUGCAGUCAGAUCGAGUGAUGUUUCGGGCGGCAGGUAGGUCGCGUGGCCCUUU [Excusion Arginine B GF 25] | 655
7 | CUUGAAAUGACUGAUACCAGUGAAAAUCUAUGUAGUGAUGUUAUAUACUAAUUUAAUAAGCGCCCUUGGCAGCAGUAUGAAUUAU [AstrosExc-theB#18] | 657
8 | UUUUACGAUACGGCCGCCACUGGUGUUAUAUAUUUGCAGGAGUGAUGUUCGUGCGAUCAUUCCAUCAGGACCGGGUAUACGCGGC [theeternabot_sameState_KL_Trp_B_43] | 265
9 | CGAGUGAUGUUCGUUCGUAUAUUUGGGUGACAGGAUAUGCGGAAACGCAGAAGGGUCACCUUCGGGUUACCCGAAUUGGCGUUAU [Model 1] | 372
10 | AGACCACAAAGUGGUCAGUGUUCGCAGCAGCGAGGACCGGUACGGCCGCCACUCGCGAGUGAUGUUCGCGAGAGCUGCGAACACA [Omei KL Tryp A Exc A v7] | 101
11 | AAUAUACAUUAAUUAAUUAAAGGUUCAGAAGGAGCGUGAAUUAACACAGGUAGGUCGCUGAGCGAGUGAUGUUCGCUAUAUACUA [JR_ExcArginiA_Sub004] | 61.4
12 | GGCCCGGGCGCGGCCGCCACUCCCUCGUACCGCAAGGUAUGAUACCGAGUGAUGUUCGGUUGGAGGAGGACCGGGCGCCCGGGCC [#2 Exclusion - Tryptophan B Attempt #5 (HarryS)] | 122
13 | UAAGAACAGUCGGCCGCCACUUGAACUACAGAAGUAGGUAUAGCACCGUGAGUGAUGUUCACUGAAAGGACCGGGACUUGCUCCG [theeternabot_sameState_KL_Trp_B_30] | 476
14 | GGAUAGGACAUAGGAUAUGGUAGUGAUGUUACCAAACUGGUUAAACAUGUCAGAAAACUGGCAUGACCAGAAGGGUGUCCUAUCG [FmnBX 27 U11+G75] | 73
15 | AGUGCAUGCUCGGCCGCCACUCAGAAGAAGAUAGAAGUGAUGUUUCUAAUGAUGAGAAUAAUAAAGAGGACCGGGAGAUGUGCAA [First try] | 122
16 | AGGGUAAGGCGUUAACAUGACACCUGGGAAGGAGCGCAGUACACUGCAGGUAGGUCGCCCAGUGAUGUUGGGCGUAUGUAUUAGU [Legexeso] | 140
17 | AGAAACUUGUAUGUCGGCCCUGCGCGCGAUACCAGCCAAAUGGAUGGCCCUUGGCAGCGCAGCGAGUGAUGUUCGCCCGGCUGAC [Exclusion Theophylline A GF 21] | 77
18 | UAAAUAAUUCAAGGAUAUGUUUUCUAUUUCGAGUGAUGUUCGGUCUUAAUAAAUUUAAUAGAUUAUACAGAAGGUGAUGGAUAGU [Astrostest] | 162
19 | GAACGGCUGGCGGCCGCCACUGGUAUACGAGUGAUGUUCGGAUACACAUAGAAUAAGGUGAUUGACAGGACCGGGUCAGAGCCGG [#15 K4 Tryptophan B Same State] | 251
20 | UGUCAUUGGUCGGCCGCCACUUCAGGUCAAAGACCAGAGUGAUGUUCUUGCACAAAGUGCUUAAGAAGGACCGGGACCGAUGACU [TrypBS 14 #SwitchBubble #K4Middle] | 256
21 | UGACUACAGGAAUAAUAAUCUUAGUGAUGUUAGGAUAUGCUGAUAAGCAGAAGGAACUGAGAUCGAAAGAUCUCAAAAGUAGUCU [#05 K4 FMN A Exclusion] | 445

Row | Sequence | apparent KD of K4 kissing-loop reporter [nM]
22 | GGAUAGGACAGAGGAUAUGGAGCUAGGCAAGAAUAACUUGUCUAGCAAUCCAUGAGGAGUGAUGUUCCAGAAGGCUGUCCUAUCG [FmnBX 2 - #SwitchBubble #StraticStem #DoubleMagnetSystem] | 825
23 | UAGGAUUUUUCGGCCGCCACUCUAGAUUCUGUGUAUUAUCUACGACUUGAAGUGAUGUUUCAGGAGAGGACCGGGAAGAUAUAAC [theeternabot_exclusion_KL_Trp_B_27] | 226
24 | AAUAUAUUGUGAAGGAGCGCGAAAAGCAGUGAUGUUGCUUACUUACAAUUUAUUUUUUACACGCAGGUAGGUCGCACAAUAUAUA [JR_SSArginiB_Sub015] | 234
25 | GGGUGUAGUGCGGCCGCCACUGUGAAAGUAGAAGAAUAUAGUGAUGUUAUAUAGGAUUAAAAGAAUAGGACCGGGCAUUAGACUU [#23 K4 Tryptophan B Same State] | 214
26 | UGUCAUUGGUCUGAUACCAGAUGAUAAUCUGGAGUGAUGUUCCAAGAACGACAAAGUCGCAUCCCUUGGCAGCAGACCGAUGACU [TheoBS 18 #SwitchBubble 13 #StaticStem] | 312
27 | CCAUUCUUUUACGAUACCAGUUUAAUUUAUUUAUUCAUAACCCUUGCCGAGUGAUGUUCGGACCCUUGGCAGCGUUUGCGAGAGG [vvuvmullin] | 331
28 | CCGAGUAGCUCCGAUACCAGCACAAUCGUUCAAUGAUCCAUGCGCAAGUGAUGUUUGCGUUGCCCUUGGCAGCGGGCAAAAGCUU [theeternabot_sameState_KL_Theo_B_2] | 61.3
29 | UUUGUGAGUGAUGUUUGCAAUACGUUACCGAAGGAUAUUGUUGCGCCAAGAAGGUCGGAUGGAUCCAUGGGACAUGCCCUGGAGA [theeternabot_sameState_KL_FMN_A_45] | 617
30 | UUAGAUCAAAGAUCAGUCUUAUCAAGAGCACGAGGACCGGUACGGCCGCCACUCGAGUGAUGUUCGAGAGCUCUUGUGACAAAUU [AK2 EXC Tryptophan A] | 148
31 | UAAAUAAUAAAACGAGUGAUGUUCGACGAUACCAGCCUCGAUAGAGGCCCUUGGCAGCGUAAAUGAUCACAAAGCCAAGGAAUAA [#OpenEnded 1] | 158
32 | CGCCAGUGAUGUUGGCGCAGCUACCGGGAAGGAGCGCCGUAGUCGGCAGGUAGGUCGCCCGGGCAGUGAUGUUGCCUCAUACCGU [Exclusion Arginine A GF 21] | 229
33 | AAGGAUCAGAGAGUGAUGUUCUCUAAUAAACGAGGACCGGUACGGCCGCCACUCGAAUAAGAUCCAGUCCUACGAAAAGUAGGAC [Omei inspired 6] | 431
34 | AAAUAUAGUGAUGUUAUAUAUAUAUGUGAUACCAGAGAAAAGAAACUCCCUUGGCAGCACGAGAGAGAAUUUUUUUUUUAUAUAU [AstrosSSTheA#2] | 370
35 | AAUCCUUACGGAGUGAUGUUCCGUAGCGAUACCAGCCAUUGCGAUGGCCCUUGGCAGCGCUAUAAGCAUUGCUAUUAAGGGCCAA [Theo A Ex t7a] | 134
36 | GGGAGUAGUGCGGCCGCCACUGAGAAAGAAGAAGAAUAUAGUGAUGUUAUAUAGGAAAUAAAGAAUAGGACCGGGCAUUAGAUUU [SSTRyptB.M] | 259
37 | GCUACCUAGGCAGGAUAUCGUAUUGAGUGAUGUUCAAUAACGGUCUACCAAAGGUAGACCGACCUUCGAGAAGGGCCUAGGUAGC | 143
38 | AAUUAAUGUAUAGAUUAUAUACAUUAAUCAGAGGAUAUGCAUUAUUGCAGAAGGCUGAAUGCAGUGAUGUUGCAAUAAUAAUUUA [JR_SSFMNA_Sub003] | 60.6
39 | CAGAUAACCUAGGAUACCAGCGUCGCUGACAGGUCGCUGGAGAAGUACAGUGAUGUUGUGCGCCCUUGGCAGCCUGUUUACACAG [theeternabot_exclusion_KL_Theo_B_32] | 255
40 | GUGCGGCUAGUGAUGUUGGUUGCGUGGGAAGGAGCGCAGAAACAUGCAGGUAGGUCGCCCACAUCUCGGAUAAGAGACUAAUUCA [Letiisve] | 606
41 | GUGGAAAUCAGAAGGAGCGUCUACAAUAAGAAAACCAGUGAUGUUGGUUUUAUUUAAUGAAGACAGGUAGGUCGCUGAAUUUCUA [Same State Arginie B GF 20] | 138
42 | AAGCAGUCACUCGAAUCCAUCGAAGAUGGGCGAGGACCGGUACGGCCGCCACUCGGAGUGAUGUUCCGAAGACUGCAAAAUAAAA | 262

Same assay, conditions: Eterna round: R107; input ligand: arginine 13.2 mM

Row | Sequence | apparent KD of K4 kissing-loop reporter [nM]
43 | AUUUAUUCGAGUGAUGUUCGUGUUUUUUCAGAGGAUAUGCGUAAUAGCAGAAGGCUGUUUUAUAUUAUAUUUUGAUUUUUUUAAA [JR_Nu_ExcFMNA_Sub025] | 123
44 | AUAAUCUUGCAGUGAUGUUGCAAGAAAGCUCAGGAUAUCAGGAAACUGAGAAGGGAGCAUCCUGAGCACUUGCAACAGUGCUCAG [[K1]-[K2]-[F1]-[F2]-[F]'-[K]'-[F]''_Design3] | 100
45 | UUUAUAAAGUCGGCCGCCACUGGUUUUAUUUUUGUUUAAUCUGGAUCAUAGUGAUGUUAUGAGACCAGGACCGGGACAUUUGUUA [#08 K4 Tryptophan B Exclusion] | 86
46 | UAUAUAGUGACGGCCGCCACUAUUGUGAUGUAGUUGUUAGAGUGAUGUUUUGUUGUUUGAUUUUGUAGGACCGGGUUAUAUGUUA [rccrwzmullin] | 565
47 | CCCAGUGAUGUUGGGAGUAGCCACAGGGAAGGAGCGUGCUAGAGCACAGGUAGGUCGCCCACUGGGUCAGUGAUGUUGGUCGGGU [Same State Arginine A GF 28] | 178
48 | CUUGGUCCACGAAGGAGCGCCGUGCAGUGAUGUUGCAGUCAGAUCGAGUGAUGUUUCGGGCGGCAGGUAGGUCGCGUGGCCCUUU [Excusion Arginine B GF 25] | 362
49 | CUUGAAAUGACUGAUACCAGUGAAAAUCUAUGUAGUGAUGUUAUAUACUAAUUUAAUAAGCGCCCUUGGCAGCAGUAUGAAUUAU [AstrosExc-theB#18] | 260
50 | UUUUACGAUACGGCCGCCACUGGUGUUAUAUAUUUGCAGGAGUGAUGUUCGUGCGAUCAUUCCAUCAGGACCGGGUAUACGCGGC [theeternabot_sameState_KL_Trp_B_43] | 209
51 | CGAGUGAUGUUCGUUCGUAUAUUUGGGUGACAGGAUAUGCGGAAACGCAGAAGGGUCACCUUCGGGUUACCCGAAUUGGCGUUAU [Model 1] | 275
52 | AGACCACAAAGUGGUCAGUGUUCGCAGCAGCGAGGACCGGUACGGCCGCCACUCGCGAGUGAUGUUCGCGAGAGCUGCGAACACA [Omei KL Tryp A Exc A v7] | 83.2
